Experiment [1] relates to B6 CD4+ T cells, Th17 differentiation. As to the kind of experiment: In vitro Th17 differentiation of retrovirally transduced CD4+ T cells. The experiment is classed as cell-based, mouse. Conditions: ectopic expression, Th17 differentiation conditions. As for the experimental part:
(FIG. 6A) OT-II CD4^+ T cells were infected with retrovirus expressing Myc-tagged V3 domain, V3 mutated at P330/1/4/6A (V3-4PA), or PR motif-deleted V3 (V3-ΔPR). Infected cells (green) were harvested, stimulated, and fixed. Conjugates were stained with anti-Myc plus a secondary Alexa 555-coupled antibody (orange), and anti-PKCθ plus a secondary Alexa 647-coupled antibody (red). Cells were analyzed as in FIG. 1A. (FIG. 6B) Quantitative analysis of the results shown in (FIG. 6A) from 30-50 T-APC conjugates. ** p<0.05. (FIG. 6C) MCC-specific T hybridoma cells were cotransfected with indicated vector, together with RE/AP-Luc and β-Gal reporter plasmids. Cells were stimulated and analyzed as in FIG. 1C. […] Cytokine-producing cells were analyzed by intracellular staining 8 h after restimulation. […] Normalized luciferase activity was determined in triplicates. […]
Investigators have reported that the Th2 and Th17 immune responses are compromised in PKCθ^−/− mice, whereas the Th1 response remains relatively intact (Marsland, B. J. et al. J Exp Med 200, 181-189 (2004); Salek-Ardakani, S. et al. J Immunol 173, 6440-6447 (2004); Salek-Ardakani, S., et al. J Immunol 175, 7635-7641 (2005)). Therefore, ectopic expression of V3 was analyzed for inhibition of Th differentiation. […]

The subject of experiment [2] is Th2-mediated lung inflammation. As to the kind of experiment: Th2-mediated Ova-induced airway inflammation after adoptive transfer of transduced OT-II Th2 cells. It counts as in vivo, mouse. Conditions: transferred Th2 cells, aerosolized Ova 3 consecutive days. From the text: (FIG. 7A-7D) OT-II CD4^+ T cells stimulated with anti-CD3 plus anti-CD28 mAbs and differentiated in vitro under Th2 (FIG. 7A-7C) or Th1 (FIG. 7D, 7E)-polarizing conditions were retrovitrally transduced with the same PKCθ V3 vectors as in FIG. 6. Sorted GFP^+ populations were adoptively transferred into naïve B6 mice, which were challenged with aerosolized Ova for 3 consecutive days. BAL fluid were obtained 1 d post-challenge and analyzed for total mononuclear cell infiltration (FIG. 7A, 7D) and cytokine expression using IL-4 (FIG. 7B), IL-5 (FIG. 7C) and IFN-γ (FIG. 7E) ELISA.
CD4^+ T cells from OT-II B6 mice were isolated and cultured with plate-bound anti-CD3 (5 μg/ml), soluble anti-CD28 (2.5 μg/ml) and IL-2 (100 U/ml) under Th1 or Th2 polarizing conditions. The cells were retrovirally infected on days 2-4 and cultured for an additional 3 days. GFP^+ cells were sorted, and 1×10^6 cells were injected intravenously into naïve WT B6 mice. One day later, mice received aerosolized Ova (5 mg/ml in 20 ml PBS) for 30 min, once a day for 3 consecutive days, using ultrasonic nebulization. Mice were sacrificed 24 h after the last challenge and assessed for lung inflammation. Collection of BAL fluid and determination of cytokine levels were carried out as described (Salek-Ardakani, S. et al. J Immunol 173, 6440-6447 (2004)).
The above findings were extended to an in vivo antigen-specific inflammatory response in an airway inflammation model, using a T cell adoptive transfer system. Mice receiving OT-II Th2 cells transduced with an empty vector developed an inflammatory response by comparison with PBS-challenged control mice, as evidenced by a significant increase in the number of infiltrating leukocytes in the bronchoalveolar lavages (BAL) fluid (FIG. 7a) and in the levels of signature Th2 cytokines, IL-4 (FIG. 7b) and IL-5 (FIG. 7c).

B1: V3 domain: amino acid 282-379 of human PKCθ with N-terminal Myc tag, expressed from pMIG retroviral vector (protein)
chain: GINQKLMAEALAMIESTQQARCLRDTEQIFREGPVEIGLPCSIKNEARPPCLPTPGKREPQGISWESPLDEVDKMCHLPEPELNKERPSLQIKLKIED
modifications: left off: small tags and cut ends
notes: amino acid 282-379 of human PKCθ with N-terminal Myc tag, expressed from pMIG retroviral vector
With B1, the “inhibition of Th17 differentiation” value in experiment [1] was roughly 75%. Moreover, in experiment [2], the “levels of Th2 cytokines (IL-4, IL-5) in BAL fluid” value was “to basal levels” and the “levels of infiltrating cells in BAL fluid” value is recorded as “to basal levels”.

The values are drawn from US20180335433A1, “COMPOSITIONS TARGETING PKC-THETA AND USES AND METHODS OF TREATING PKC-THETA PATHOLOGIES, ADVERSE IMMUNE RESPONSES AND DISEASES” (La Jolla Institute for Allergy and Immunology, priority 2011, published 2018).
